Here are results for 1 molecule from patent US9969795.

For this assay, the target named is recombinant influenza HA3-protein (from H3N2, Wyoming, March 2003, Sino Biological Inc.) (Influenza virus H3N2 (Wyoming, March 2003)). Put plainly: SPR imaging (IBIS MX96), antibody captured on anti-human-IgG chip, HA3 1 ug/ml; global 1:1 fit in Scrubber2.

Broadly, the Kd is the concentration at which binding is half-saturated. As a reminder, the koff is the first-order rate constant of dissociation. A word on the kon: it is the second-order rate constant of association.

B1: AT10_004 (antibody, V domains shown)
VH: QVQLVQSGAEVRKPGASVKVSCKASGYTFTRHGISWVRQAPGQGLEWMGWISAYTGDTDYAQKFQGRVTMTTDTSTNTAYMELRSLRSDDAAVYYCARLRLQGEVVVPPSQSNWFDPWGQGTLVTVSS
VL: EIVLTQSPATLSLYPGERATLSCRASQSVSRYLAWYQQKPGQAPRLLIYDASNRATGIPARFSGSGSGTDFTLTISSLEPEDFAVYYCQQRSNWLKITFGQGTRLEIKG
In the case of B1, the Kd worked out at 0.07 nM, the koff worked out at 1e-06 s⁻¹ and the kon is 14000 M⁻¹ s⁻¹.
